Measurements reported in article PMC10761686.

Columns and labels:
[1] = target: actin from rabbit skeletal muscle, as filaments (F-actin) capped at their barbed ends by gelsolin (rabbit) (UniProt P68135)
[2] = target: actin from rabbit skeletal muscle, as filaments (F-actin) capped at their barbed ends by gelsolin (rabbit) (UniProt P68135); remark: listed apart in the source

inhibition of pyrene-actin depolymerisation from pointed ends against TMOD1^wt, long filaments (1:100 gelsolin to actin), without TPM1 (fold weaker than TMOD1^wt) [1]: 2
inhibition of pyrene-actin depolymerisation from pointed ends against TMOD1^wt, short filaments (1:10 gelsolin to actin), without TPM1 (fold weaker than TMOD1^wt) [1]: 5
capping activity against TMOD1^wt: inhibition of pyrene-actin polymerisation at pointed ends of long filaments (1:100 gelsolin to actin), without TPM1 (fold weaker than TMOD1^wt) [2]: 2
capping activity against TMOD1^wt: inhibition of pyrene-actin polymerisation at pointed ends of short filaments (1:10 gelsolin to actin), without TPM1 (fold weaker than TMOD1^wt) [2]: 2
Substance: tropomodulin 1 (TMOD1) with the patient variant p.R189W, purified recombinant human (from UniProt P28289-1 1-359) (natural protein)
